Publication PMC3832594

Target: MCT2 tagged at its N-terminus with CFP (rat) (UniProt Q63344)
Assay: FRET or BRET; live COS-7 cells co-transfected with MCT2-ECFP (N-terminal) and np55- or np65-EYFP (C-terminal), 48 h after transfection; 37°C, imaging buffer pH 7.4; ratio of emission at 480 nm to 530 nm on excitation at 430 nm (MCT2-CFP alone 1.33±0.016)

MCT2 tagged at its N-terminus with CFP (rat), sequence (Q63344 whole entry): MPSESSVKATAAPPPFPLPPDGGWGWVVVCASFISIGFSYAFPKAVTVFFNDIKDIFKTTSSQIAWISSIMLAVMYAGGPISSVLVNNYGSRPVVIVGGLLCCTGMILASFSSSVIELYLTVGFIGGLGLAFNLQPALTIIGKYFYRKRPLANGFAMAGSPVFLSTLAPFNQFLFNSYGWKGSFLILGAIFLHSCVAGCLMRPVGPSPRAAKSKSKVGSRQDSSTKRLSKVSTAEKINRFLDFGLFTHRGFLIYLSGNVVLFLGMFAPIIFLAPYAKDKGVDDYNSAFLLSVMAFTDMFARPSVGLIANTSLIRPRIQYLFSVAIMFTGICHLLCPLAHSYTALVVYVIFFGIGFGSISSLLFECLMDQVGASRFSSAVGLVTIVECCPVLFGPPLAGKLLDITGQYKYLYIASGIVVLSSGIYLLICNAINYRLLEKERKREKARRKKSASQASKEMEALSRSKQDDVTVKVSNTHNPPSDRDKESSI
np55 C-terminally labelled with YFP (natural protein), sequence (P97546 29-393): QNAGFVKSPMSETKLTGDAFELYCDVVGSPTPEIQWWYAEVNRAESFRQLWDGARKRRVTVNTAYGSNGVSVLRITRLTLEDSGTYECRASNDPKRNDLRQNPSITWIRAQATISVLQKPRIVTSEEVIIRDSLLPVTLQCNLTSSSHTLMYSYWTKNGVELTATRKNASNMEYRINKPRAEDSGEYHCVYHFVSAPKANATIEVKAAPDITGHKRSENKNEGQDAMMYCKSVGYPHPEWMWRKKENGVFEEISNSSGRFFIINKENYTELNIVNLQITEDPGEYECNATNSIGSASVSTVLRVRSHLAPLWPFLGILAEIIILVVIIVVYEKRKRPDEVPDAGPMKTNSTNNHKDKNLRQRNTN

480:530 nm fluorescence emission ratio (FRET): 0.797
Substance: np55 C-terminally labelled with YFP (natural protein)
